Test results taken from article PMC3386930, “Altering APP Proteolysis: Increasing sAPPalpha Production by Targeting Dimerization of the APP Ectodomain” (PLoS ONE, 2012).

Columns and labels:
eAPP230–624 [1] = target: T1, eAPP230–624 (Homo sapiens, UniProt P05067); assay: Intrinsic tryptophan fluorescence of eAPP230–624; format: binding; conditions: for log(EC50), EC50 = molar ratio Aβ to eAPP230–624 that invokes half the response: quenching at 375 nm, equation 4, n constrained to 7, R^2 = 0.88, differences not significant at p<0.05; for inhibition of eAPP dimerization (in words): legend of titration of 0.64 µM eAPP230–624 with 0–60 µM fragment
T1 construct: made in house
Procedure: The excitation spectra of the intrinsic tryptophan fluorescence were recorded using either a Shimadzu RF-530PC (Shimadzu Scientific Instruments) or a Spectramax XPS spectrophotometer (Molecular Devices).
Full emission spectra were measured with the Shimadzu RF-530PC using a 3 ml quartz cuvette, a 5 nm slit width and protein concentrations between 0.2–0.6 µM. […] For these larger dilutions, control titrations with the protein alone were used to generate a scaling matrix where the scale factor was both a function of wavelength and dilution. […] A similar scaling matrix was used to correct for the effect of dilution with DMSO. […] All titrations were performed at 24°C. The oligomers were stored on ice during the experiment.
These concentrations are analogous to concentrations used to create complexes for the small angle x-ray scattering analysis. The incubated material was diluted with PBS so that the final protein concentration was 0.5 µM. The spectra were recorded with the Shimadzu […].
For experiments with the Spectromax XPS plate reader, an excitation wavelength of 295 nm was used. This excitation wavelength was chosen to minimize both the contribution of tyrosine in the protein and the background fluorescence of the 96-well plates (Costar #3915).
For the quenching experiments, the data were analyzed by constructing Stern-Volmer plots, F0/F vs. Q, where Fo is the intensity of the fluorescence at zero concentration, F is the intensity of the fluorescence, and Q is the concentration of the quenching agent. When quenching is through either a static (binding) or dynamic (collisional) mechanism this plot is linear and follows the equation: [drawing 1] (1) where Ksv is the quenching constant. When both processes are present the Stern-Volmer plot is quadratic: [drawing 2] (2) where KD is the equilibrium constant associated with dynamic quenching and Ks is the equilibrium constant associated with static quenching. All parameters were determined using PRISM (GraphPad) and the appropriate non-linear curve fitting routine.
The centroid wavelength (λc) was calculated as: [drawing 3] (3) where I(λi) is the intensity observed for the wavelength (λi). The range of wavelengths was 310–390 nm.

eAPP230–624 [2] = target: T1, eAPP230–624; assay: Small-angle X-ray scattering (SAXS) of eAPP230–624 complexes; format: binding; conditions: for Dmax / Rg: SAXS, GNOM, eAPP230–624 with peptide; for Dmax: maximum dimension, max. estimated error ±10 Å; for Rg: radius of gyration, max. estimated error ±2 Å
Procedure: The samples were incubated on ice for 20 minutes and then concentrated to 50 µl with 10-kDa cutoff concentrators (Millipore). […] Samples of the filtrates were used for buffer subtraction.
The samples were then concentrated and purified with a Superdex S200 size-exclusion column with 20 mM Tris pH 7.4, 100 mM sodium chloride and 2 mM EDTA. Samples of the protein buffer from the size-exclusion columns were used for buffer subtraction.
Data collection and processing
Small-angle X-ray scattering data were collected using protein concentrations in the range of 0.5–3 mg/ml and an X-ray wavelength of 1.11 Å at beam line 12.3.1 (Advanced Light Source). Data were integrated with software customized for the beam line and processed with the program PRIMUS [30]. The program GNOM [31] was used to calculate the maximum dimension and the radius of gyration and to estimate the intensity of the scattering at zero angle for higher concentration samples.

[3] = target: the molecule itself; assay: small-angle X-ray scattering (SAXS); eAPP fragment alone; 0.5–3 mg/ml, X-ray wavelength 1.11 Å; relative mass from I(0) against albumin and the eAPP fragment dimer
[4] = incubated, 1:6 molar ratio, 0.5 µM eAPP230–624

Question: Which results are given for “13-kDa Aβ1-40: 13-kDa Aβ1-40 oligomer pool”?
Answer: more oligomers that can bind eAPP (ratio of amplitudes A) (eAPP230–624 [1]; from ratio of amplitudes of maximal response, vs 70-kDa pools, Spectramax XPS): about 150%; blue-shift in the centroid wavelength (eAPP230–624 [1]; [4]): did not produce a significant blue shift; fluorescence intensity relative to eAPP230–624 (eAPP230–624 [1]; [4]): 80%; log(EC50), EC50 = molar ratio Aβ to eAPP230–624 that invokes half the response (eAPP230–624 [1]; Spectramax XPS): 1.27±0.02

Question: “Aβ5-14: Aβ fragment (RHDSGYEVHH; Amyloid-beta protein 42; UniProt P05067 676-685, looked up, fragment)” was tested. Which “inhibition of eAPP dimerization (in words)” value (from here on “inhibition”) (eAPP230–624 [1]) did it give?
Answer: The value was “inhibit eAPP dimerization”.

Question: With “Aβ12-24: Aβ fragment (VHHQKLVFFAEDV; Amyloid-beta protein 42; UniProt P05067 683-695, looked up, fragment)” as the molecule, how does the “inhibition” value (eAPP230–624 [1]) read?
Answer: Its value is “inhibit eAPP dimerization”.

Question: How did the “increase in intensity of the fluorescence” value (eAPP230–624 [1]; rapid dilution, final 1:27 molar ratio, 0.64 µM eAPP230–624, Shimadzu RF-530PC) turn out when “13-kDa Aβ1-42: 13-kDa Aβ1-42 oligomers, predominately trimers” was run?
Answer: The value was 114%.

Question: For “70-kDa Aβ1-40: 70-kDa Aβ1-40 oligomer pool”, which “log(EC50), EC50 = molar ratio Aβ to eAPP230–624 that invokes half the response” value (eAPP230–624 [1]; Spectramax XPS) is on record?
Answer: Its value is 1.32±0.01.

Question: Which Dmax (eAPP230–624 [2]) does the source give for 20-kDa Aβ1-42: 20-kDa Aβ1-42 oligomers here?
Answer: Its Dmax is 170 Å.

Question: And the Rg (eAPP230–624 [2])?
Answer: The Rg was 46 Å.

Question: “7-kDa Aβ1-40: 7-kDa Aβ1-40 dimers, prepared by sonication and 15 minutes incubation” was tested. Which “inhibition” value (eAPP230–624 [1]) did it give?
Answer: The value was “inhibit eAPP dimerization”.

Question: What about the MWcalc/MWseq (eAPP230–624 [2]; SAXS relative mass, MWseq 45-kDa for eAPP230–624, max. error ±0.2, monomer around 1.3, protein alone 2.0) of the same molecule?
Answer: Its MWcalc/MWseq is 1.2.

Question: And the Dmax (eAPP230–624 [2])?
Answer: The Dmax was 180 Å.

Question: What about the Rg (eAPP230–624 [2]) of the same molecule?
Answer: Its Rg is 49 Å.

Question: What does the source list for Aβ12-28: Aβ fragment?
Answer: inhibition of eAPP dimerization (in words) (eAPP230–624 [1]): inhibit eAPP dimerization; pattern of changes in the intrinsic fluorescence (in words) (eAPP230–624 [1]; titration of 0.64 µM eAPP230–624, 345 nm): acted like Aβ1-40 dimers in terms of the changes in the intrinsic fluorescence

Question: How did the “effect on intrinsic fluorescence at 375 nm (in words)” value (eAPP230–624 [1]; Spectramax XPS, increasing molar ratio, up to 120 µM Aβ) turn out when “Aβ1-42 species greater than 200-kDa: Aβ1-42 species greater than 200-kDa in size” was run?
Answer: The value was “slight enhancement of the intrinsic fluorescence”.

Question: What about the “change in fluorescence spectra (in words)” value (eAPP230–624 [1]; [4]) of the same molecule?
Answer: The value was “relatively minor change in the fluorescence spectra”.

B1: MBP-eAPP_(230–624), maltose binding protein fusion protein containing residues 230–624 (domain or fragment, UniProt P05067-4 230-624, looked up)
chain: EEEEVAEVEEEEADDDEDDEDGDEVEEEAEEPYEEATERTTSIATTTTTTTESVEEVVRVPTTAASTPDAVDKYLETPGDENEHAHFQKAKERLEAKHRERMSQVMREWEEAERQAKNLPKADKKAVIQHFQEKVESLEQEAANERQQLVETHMARVEAMLNDRRRLALENYITALQAVPPRPRHVFNMLKKYVRAEQKDRQHTLKHFEHVRMVDPKKAAQIRSQVMTHLRVIYERMNQSLSLLYNVPAVAEEIQDEVDELLQKEQNYSDDVLANMISEPRISYGNDALMPSLTETKTTVELLPVNGEFSLDDLQPWHSFGADSVPANTENEVEPVDARPAADRGLTTRPGSGLTNIKTEEISEVKMDAEFRHDSGYEVHHQKLVFFAEDVGSNK
notes: numbers count on: APP695; Dimer by SAXS; source: expressed and purified as previously described [18]
Question: With B1 as the molecule, how does the “stoichiometry N” value [3] read?
Answer: Its value is 2.

B2: TRX-eAPP_(290–624), thioredoxin fusion protein containing residues 290–624 of APP695 (domain or fragment, UniProt P05067-4 290-624, looked up)
chain: PTTAASTPDAVDKYLETPGDENEHAHFQKAKERLEAKHRERMSQVMREWEEAERQAKNLPKADKKAVIQHFQEKVESLEQEAANERQQLVETHMARVEAMLNDRRRLALENYITALQAVPPRPRHVFNMLKKYVRAEQKDRQHTLKHFEHVRMVDPKKAAQIRSQVMTHLRVIYERMNQSLSLLYNVPAVAEEIQDEVDELLQKEQNYSDDVLANMISEPRISYGNDALMPSLTETKTTVELLPVNGEFSLDDLQPWHSFGADSVPANTENEVEPVDARPAADRGLTTRPGSGLTNIKTEEISEVKMDAEFRHDSGYEVHHQKLVFFAEDVGSNK
notes: as for B1
Question: For B2, which “stoichiometry N” value [3] is on record?
Answer: Its value is 2.
